The text below walks through data of article PMC3075617 (Cell, 2011).

Numbering of substitutions follows the chain as printed. In names and notes the source's numbering stands. Several values for one entry are separate records, joined by “and”; a condition that tells them apart may be missing. Equal entries are not always repeated.

Usually stoichiometry N stands for the number of molecules, sites or subunits per partner or assembly.

B1: DegP^S210A/Y444A, P0C0V0 27-474 (enzyme)
chain: AETSSATTAQQMPSLAPMLEKVMPSVVSINVEGSTTVNTPRMPRNFQQFFGDDSPFCQEGSPFQSSPFCQGGQGGNGGGQQQKFMALGSGVIIDADKGYVVTNNHVVDNATVIKVQLSDGRKFDAKMVGKDPRSDIALIQIQNPKNLTAIKMADSDALRVGDYTVAIGNPFGLGETVTSGIVSALGRSGLNAENYENFIQTDAAINRGNAGGALVNLNGELIGINTAILAPDGGNIGIGFAIPSNMVKNLTSQMVEYGQVKRGELGIMGTELNSELAKAMKVDAQRGAFVSQVLPNSSAAKAGIKAGDVITSLNGKPISSFAALRAQVGTMPVGSKLTLGLLRDGKQVNVNLELQQSSQNQVDSSSIFNGIEGAEMSNKGKDQGVVVNNVKTGTPAAQIGLKKGDVIIGANQQAVKNIAELRKVLDSKPSVLALNIQRGDSTIALLMQ
B2: DegP^S210A active-site mutant (enzyme, Escherichia coli, UniProt P0C0V0 27-474, looked up)
chain: B1 chain with A444Y

One data set has as its target DegP (Escherichia coli, UniProt P0C0V0). Type of data set: biochemical. The note with it: reporter 100 μM; no activator; 23 °C, 50 mM sodium phosphate pH 8, 100 mM NaCl.
Data set [1] has as its target T1, DegP^S210A/Y444A (Escherichia coli), P0C0V0.
T1 chain: B1 chain
In words: SEC. The settings on record: remark: other sources report otherwise.

Data set [2] addresses T1, DegP^S210A/Y444A (Escherichia coli), …. Kind of data set: SEC. The settings on record: remark: other sources report otherwise.
The data set “SEC” concerns the molecule itself. In words: SEC. On the technique in general: SEC sorts molecules by how far they enter the pores of the column.
The data set “AUC” concerns the molecule itself. Kind of data set: AUC.
The target in data set [3] is B2. Kind of data set: crystal structure.

DegP, sequence (P0C0V0 27-474): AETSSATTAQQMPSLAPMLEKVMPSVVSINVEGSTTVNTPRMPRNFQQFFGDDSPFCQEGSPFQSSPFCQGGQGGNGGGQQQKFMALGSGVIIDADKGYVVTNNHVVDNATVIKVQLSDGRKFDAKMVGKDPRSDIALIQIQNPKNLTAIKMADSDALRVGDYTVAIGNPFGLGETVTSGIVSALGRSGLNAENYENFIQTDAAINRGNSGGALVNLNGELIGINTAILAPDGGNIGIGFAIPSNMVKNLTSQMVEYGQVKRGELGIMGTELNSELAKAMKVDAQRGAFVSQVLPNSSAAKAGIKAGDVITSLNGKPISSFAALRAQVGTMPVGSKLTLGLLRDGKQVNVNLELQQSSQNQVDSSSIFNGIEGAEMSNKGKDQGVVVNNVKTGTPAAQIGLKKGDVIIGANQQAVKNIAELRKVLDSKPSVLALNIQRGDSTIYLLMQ

Abz-KASPVSLGY^NO2D [reporter peptide]: the “rate of reporter peptide cleavage by DegP alone” value on DegP came out at 0.027 min^−1 DegP^−1.

With B1, the stoichiometry N in data set [1] and in data set [2] was 6 throughout.

On to B2, for which the “stoichiometry N” value in the data set “SEC” was 6; in “AUC” it was 18 and 24 and 30.

As for DNYRGYSLGNWVSAAKFESNFNTQATNRNTDGSTDYGILQI (peptide, UniProt P00698 36-76, looked up) [18-58 polypeptide (lysozyme residues 18-58 with the cysteines mutated to serines)], the binding result in data set [3] was “binds”.
